Data on 1 substance can be found in PMC11518995.

This test concerns the target mTOR with the cancer-associated 1455-EWED-1458 duplication, as the mTOR subunit of mTORC1_EWEDdup (human) (UniProt P42345). Put plainly: cryo-EM structure; mTORC1_EWEDdup co-expressed and purified as a complex; 1 uM with 20 uM 4EBP1 and 1 mM AMPPNP, cross-linked with 0.2 mM BS3 and 0.03% glutaraldehyde, glycerol gradient, Superose 6; 50 mM HEPES pH 7.5, 250 mM NaCl, 5 mM MgCl2, 1 mM TCEP.

Take “mTOR with the cancer-associated 1455-EWED-1458 duplication, as the mTOR subunit of mTORC1_EWEDdup, P42345 1-2549”: the stoichiometry N came to 2.

As usually defined, the stoichiometry N is the number of molecules, sites or subunits per partner or assembly.
